Experimental findings from patent publication US20260184814A1, “BROADLY NE[…] INFLUENZA NEURAMINIDASE” (priority 2022, published 2026) are described below.

Like-named read-outs stand apart in the source and are kept apart here.

In test [1] the target is human FcγRIIa (R131 allele) (human) (UniProt P12318). In words: MSD [cont'd].
The target in test [2] is human FcγRIIb (human) (UniProt P31994). Description: MSD [cont'd].
Test [3] addresses human FcγRIIIa (F158 allele) (human) (UniProt P08637). Description: MSD [cont'd].
In test [4] the target is human FcRn (human) (UniProt P55899). In words: MSD [cont'd].
The target in test [5] is human FcγRIIa (H131 allele) (human) (UniProt P12318). Description: MSD [cont'd].
Test [6] deals with human C1q (human) (UniProt P02745). Description: MSD [cont'd].
The target of test [7] is human FcRn (human) (UniProt P55899). Description: MSD, pH 6 [cont'd].
In test [8] the target is human FcγRIIIa (F158 allele) (human) (UniProt P08637). In words: MSD [cont'd]. The source holds these as a separate data set.
Test [9] addresses human FcγRIIIa (V158 allele) (human) (UniProt P08637). Description: MSD [cont'd].
Test [10] has as its target human C1q (human) (UniProt P02745). In words: MSD [cont'd]. The source holds these as a separate data set.
Test [11] has as its target human FcγRIIa (R131 allele) (human) (UniProt P12318). Description: MSD.
Test [12] deals with human FcγRIIb (human) (UniProt P31994). In words: MSD.
Test [13] has as its target human FcγRIIa (H131 allele) (human) (UniProt P12318). In words: MSD.
Test [14] concerns the target human FcγRIIIa (V158 allele) (human) (UniProt P08637). In words: MSD [cont'd]. This is another data set of the same source.
In test [15] the target is human FcγRIIIa (F158 allele) (human) (UniProt P08637).
Test [16] addresses human FcγRIIIa (V158 allele) (human) (UniProt P08637).
Test [17] deals with human FcγRIIa (R131 allele) (human) (UniProt P12318). In words: MSD [cont'd]. The source holds these as a separate data set.
The target of test [18] is human FcγRIIb (human) (UniProt P31994). In words: MSD [cont'd]. The source holds these as a separate data set.
Test [19] has as its target human FcγRIIIb (human) (UniProt O75015). In words: MSD [cont'd].
The target in test [20] is human FcRn (human) (UniProt P55899). Description: MSD [cont'd]. This is another data set of the same source.
For test [21], the target named is human FcγRIIa (H131 allele) (human) (UniProt P12318). Description: MSD [cont'd]. This is another data set of the same source.
The target of test [22] is human FcγRIIb (human) (UniProt P31994).
Test [23] concerns the target human FcγRIIIa (F158 allele) (human) (UniProt P08637). The source holds these as a separate data set.
Test [24] addresses human FcγRIIIa (V158 allele) (human) (UniProt P08637). The source holds these as a separate data set.
Test [25] has as its target human FcγRIIa (H131 allele) (human) (UniProt P12318).
Test [26] concerns the target human FcγRIIb (human) (UniProt P31994). The source holds these as a separate data set.
Test [27] addresses human FcγRIIIa (F158 allele) (human) (UniProt P08637). The source holds these as a separate data set.
Test [28] has as its target human FcγRIIIa (V158 allele) (human) (UniProt P08637). This is another data set of the same source.
The target in test [29] is human FcγRIIa (H131 allele) (human) (UniProt P12318). The source holds these as a separate data set.
Test [30] has as its target human FcγRIIb (human) (UniProt P31994). Description: Table B summary, vs fucosylated wild-type human IgG1.
Test [31] deals with human FcγRIIIa (F158 allele) (human) (UniProt P08637). In words: MSD.
Test [32] has as its target human FcγRIIIb (human) (UniProt O75015). In words: MSD.
The target in test [33] is human FcγRIIIa (V158 allele) (human) (UniProt P08637). In words: MSD.
human FcγRIIIa (V158 allele) (human), sequence (P08637 17-208 F176V limits assumed): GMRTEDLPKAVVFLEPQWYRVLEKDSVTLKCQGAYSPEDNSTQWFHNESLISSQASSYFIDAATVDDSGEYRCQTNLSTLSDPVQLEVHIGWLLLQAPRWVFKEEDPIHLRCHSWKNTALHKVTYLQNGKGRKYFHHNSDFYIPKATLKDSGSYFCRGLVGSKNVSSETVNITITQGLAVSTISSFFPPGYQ

human FcγRIIb (human), sequence (P31994 43-217 limits assumed): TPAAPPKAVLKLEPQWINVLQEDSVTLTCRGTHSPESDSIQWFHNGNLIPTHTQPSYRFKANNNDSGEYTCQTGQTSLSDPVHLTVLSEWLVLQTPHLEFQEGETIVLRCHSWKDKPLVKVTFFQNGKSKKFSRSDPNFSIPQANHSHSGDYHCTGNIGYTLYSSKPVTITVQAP
human FcγRIIIa (F158 allele) (human), sequence (P08637 17-208 limits assumed): as the sequence (P08637 17-208 F176V limits assumed) above, with V160F counted along it
human FcγRIIa (H131 allele) (human), sequence (P12318 34-218 limits assumed): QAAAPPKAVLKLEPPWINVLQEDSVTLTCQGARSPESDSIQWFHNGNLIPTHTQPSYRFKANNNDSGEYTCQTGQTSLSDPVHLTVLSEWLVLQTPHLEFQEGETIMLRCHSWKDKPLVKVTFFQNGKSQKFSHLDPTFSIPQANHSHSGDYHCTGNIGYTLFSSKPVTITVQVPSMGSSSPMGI
human FcγRIIa (R131 allele) (human), sequence (P12318 34-218 H167R limits assumed): as the sequence (P12318 34-218 limits assumed) above, with H134R counted along it
human FcRn (human), sequence (P55899 24-297 limits assumed, chain 1 of 2): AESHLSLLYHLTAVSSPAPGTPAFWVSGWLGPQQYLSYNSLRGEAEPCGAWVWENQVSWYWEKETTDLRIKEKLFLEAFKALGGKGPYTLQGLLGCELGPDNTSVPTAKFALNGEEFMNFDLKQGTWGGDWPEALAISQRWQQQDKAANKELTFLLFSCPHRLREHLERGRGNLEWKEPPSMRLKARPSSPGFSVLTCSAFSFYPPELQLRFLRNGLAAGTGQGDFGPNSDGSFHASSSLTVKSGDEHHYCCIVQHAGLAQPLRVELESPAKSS
human FcRn (human), sequence (chain, as listed by the source limits assumed, chain 2 of 2): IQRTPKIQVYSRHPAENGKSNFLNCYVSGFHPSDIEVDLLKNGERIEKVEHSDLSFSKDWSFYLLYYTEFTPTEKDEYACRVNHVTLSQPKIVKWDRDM
human FcγRIIIb (human), sequence (O75015 17-200 limits assumed): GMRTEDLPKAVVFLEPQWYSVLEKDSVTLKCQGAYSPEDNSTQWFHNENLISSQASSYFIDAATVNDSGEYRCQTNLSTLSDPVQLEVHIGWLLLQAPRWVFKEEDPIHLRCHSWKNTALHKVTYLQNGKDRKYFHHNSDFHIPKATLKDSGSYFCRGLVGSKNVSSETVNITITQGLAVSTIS
human C1q (human), sequence (P02745 23-245 limits assumed, chain 1 of 3): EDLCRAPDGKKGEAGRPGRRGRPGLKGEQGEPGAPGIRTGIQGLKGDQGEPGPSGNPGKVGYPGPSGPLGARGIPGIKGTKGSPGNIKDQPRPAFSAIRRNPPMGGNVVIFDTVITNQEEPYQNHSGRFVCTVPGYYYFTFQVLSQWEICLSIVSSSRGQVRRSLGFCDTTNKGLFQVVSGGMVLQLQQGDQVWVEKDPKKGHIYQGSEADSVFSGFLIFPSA
human C1q (human), sequence (P02746 28-253 limits assumed, chain 2 of 3, further chain): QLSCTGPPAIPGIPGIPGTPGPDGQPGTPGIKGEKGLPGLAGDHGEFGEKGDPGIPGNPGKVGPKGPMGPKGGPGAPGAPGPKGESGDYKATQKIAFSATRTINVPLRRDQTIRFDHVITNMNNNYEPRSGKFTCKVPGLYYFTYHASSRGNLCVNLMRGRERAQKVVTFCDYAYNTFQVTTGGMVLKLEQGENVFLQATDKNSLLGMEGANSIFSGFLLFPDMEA
human C1q (human), sequence (P02747 29-245 limits assumed, chain 3 of 3, further chain): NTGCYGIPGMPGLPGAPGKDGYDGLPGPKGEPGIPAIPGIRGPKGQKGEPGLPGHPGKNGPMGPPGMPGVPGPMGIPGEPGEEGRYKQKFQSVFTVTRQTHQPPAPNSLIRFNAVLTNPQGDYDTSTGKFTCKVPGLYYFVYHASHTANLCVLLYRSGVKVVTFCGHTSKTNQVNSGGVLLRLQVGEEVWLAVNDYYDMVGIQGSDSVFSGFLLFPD

With “IgG1 antibody with Fc variant E272R_L309T_S219Y_S267E”, the fold-change vs wt in test [1] was determined as 10.7 fold; in the test with human FcγRIIb (human) [2], 4.77 fold; in [3], 0.37 fold; with human FcRn (human) [4] it was 0.98 fold; in test [5] it was 0.33 fold; with human C1q (human) [6] it was 2.53 fold.
For IgG1 antibody with Fc variant G236W, the fold-change to WT Fc is 1.09 fold with human FcRn (human) [7]; 0.541 fold in test [8]; 0.117 fold in test [9]; 3.66 fold in the test with human C1q (human) [10]; 0.469 fold in test [11]; 0.652 fold with human FcγRIIb (human) [12]. Also, the fold-change to WT Fc in test [13] came out at 1.06 fold. Moreover, the fold-change vs wt is 0.47 fold in [1]; 0.65 fold in the test with human FcγRIIb (human) [2]; 0.54 fold in test [3]; 0.12 fold in test [14]; 1.09 fold in the test with human FcRn (human) [4]; 1.06 fold in test [5]. Besides, the fold-change vs wt with human C1q (human) [6] was found to be 3.63 fold.
As to “IgG1 antibody with Fc variant E345K_G236S_L235Y_S267E”, the fold-change vs wt was 9.22 fold in test [1]; 1.71 fold with human FcγRIIb (human) [2]; 0.29 fold in test [3]; 0.05 fold in [14]; 0.9 fold in the test with human FcRn (human) [4]; 0.53 fold in test [5]. Also, the fold-change vs wt with human C1q (human) [6] was 2.35 fold.
For IgG1 antibody with Fc variant G236Y, the fold-change to WT Fc is 1.05 fold with human FcRn (human) [7]; 0.559 fold in test [8]; 0.116 fold in [9]; 3.25 fold with human C1q (human) [10]; 0.418 fold in [11]; 0.547 fold with human FcγRIIb (human) [12]. The fold-change to WT Fc in test [13] stood at 0.735 fold. The fold-change vs wt came to 0.42 fold in test [1]; 0.55 fold in the test with human FcγRIIb (human) [2]; 0.56 fold in test [3]; 0.12 fold in [14]; 1.05 fold in the test with human FcRn (human) [4]; 0.74 fold in test [5]. In addition, the fold-change vs wt with human C1q (human) [6] worked out at 3.22 fold.
As to “IgG1 antibody with Fc variant F243L_G446E_P396L_S267E”, the fold-change vs wt in [1] turned out to be 31.1 fold; in the test with human FcγRIIb (human) [2] it was 15.7 fold; in test [3] it was 0.63 fold; in test [14], 0.24 fold; with human FcRn (human) [4] it was 1.05 fold; in test [5] it was 0.77 fold. Moreover, the fold-change vs wt with human C1q (human) [6] worked out at 4.17 fold.
Turning to S239D_H268E_G236A-afuc (antibody), the values for the FcγR reporter signaling, fold to wt-fucose [cont'd] in [15] and in test [16] were 11.6 fold and 5.65 fold, respectively. Besides, the fold to wt-fucose in [17] is 62 fold; with human FcγRIIb (human) [18] it was 6.35 fold; in test [8] it was 425 fold; with human FcγRIIIb (human) [19], 38.1 fold; in [9], 84.9 fold; in the test with human FcRn (human) [20] it was 1.01 fold. Also, the fold to wt-fucose in [21] was 13.6 fold.
Turning to G236A_S239D_A330L_I332E-afuc (antibody), the FcγR reporter signaling, fold to wt-fucose [cont'd] in test [15] amounted to 11.5 fold; in [16] it was 5.16 fold. Besides, the fold to wt-fucose in test [17] is 7.58 fold; with human FcγRIIb (human) [18], 1.21 fold; in [8] it was 730 fold; with human FcγRIIIb (human) [19] it was 94.3 fold; in test [9], 75.6 fold; with human FcRn (human) [20] it was 0.96 fold. Also, the fold to wt-fucose in [21] stood at 3.58 fold.
Turning to IgG1 antibody with Fc variant Y300L, the fold-change to WT Fc worked out at 1.06 fold in the test with human FcRn (human) [7]; 1.25 fold in test [8]; 1.62 fold in [9]; 2.16 fold in the test with human C1q (human) [10]; 0.822 fold in test [11]; 1.18 fold in the test with human FcγRIIb (human) [12]. Also, the fold-change to WT Fc in test [13] came to 1.86 fold. In addition, the fold-change vs wt in test [17] is 0.82 fold; with human FcγRIIb (human) [18] it was 1.18 fold; in test [21], 1.86 fold; in [3], 1.24 fold; in [14], 1.62 fold; in the test with human FcRn (human) [4] it was 1.06 fold. Besides, in the test with human C1q (human) [6], the fold-change vs wt is 2.14 fold.
For the substance R292P_Y300L-afuc (antibody), the FcγR reporter signaling, fold to wt-fucose [cont'd] in test [15] came out at 10.6 fold; in test [16] it was 4.52 fold. For the same substance, the fold to wt-fucose in test [17] amounted to 0.72 fold; in the test with human FcγRIIb (human) [18] it was 1.05 fold; in [8] it was 26.5 fold; with human FcγRIIIb (human) [19], 4.53 fold; in [9] it was 16.1 fold; in the test with human FcRn (human) [20], 0.82 fold. The fold to wt-fucose in test [21] came to 1.27 fold.
Regarding G236R_L328R-afuc (antibody), the FcγR reporter signaling, fold to wt-fucose [cont'd] in [15] worked out at 0.05 fold; in [16], 0.2 fold. The fold to wt-fucose in test [17] worked out at 0.24 fold; with human FcγRIIb (human) [18], 0.17 fold; in test [8], 0.33 fold; with human FcγRIIIb (human) [19], 0.6 fold; in test [9], 0.07 fold; with human FcRn (human) [20], 1.09 fold. Further, the fold to wt-fucose in [21] was 0.16 fold. The fold-change (reference not given) with human FcγRIIb (human) [12] was found to be 0.2 fold.
On to “IgG1 antibody with Fc variant R292P_Y300L”, for which the fold-change to WT Fc was 0.879 fold in the test with human FcRn (human) [7]; 5.29 fold in test [8]; 4.85 fold in test [9]; 2.09 fold in the test with human C1q (human) [10]; 0.682 fold in test [11]; 0.9 fold with human FcγRIIb (human) [12]. In test [13], the fold-change to WT Fc was 1.4 fold. The FcγR reporter signaling, fold-change vs wt [cont'd] in the test with human FcγRIIb (human) [22] worked out at 0.72 fold; in test [23], 7.42 fold; in test [24], 3.66 fold; in [25], 0.98 fold. In addition, the fold-change vs wt in test [17] turned out to be 0.68 fold; in the test with human FcγRIIb (human) [18], 0.9 fold; in test [8], 5.29 fold; in the test with human FcγRIIIb (human) [19] it was 1.72 fold; in test [9], 4.85 fold; in the test with human FcRn (human) [20], 0.88 fold. The results for the fold-change vs wt (in test [21]; with human C1q (human) [10]; with human C1q (human) [6]) were 1.4 fold, 2.09 fold and 2.07 fold, respectively.
Take “IgG1 antibody with Fc variant G236S_G420V_G446E_L309T”: the FcγR reporter signaling, fold-change vs wt [cont'd] with human FcγRIIb (human) [26] was 0.22 fold; in [27] it was 0.03 fold; in test [28], 0.06 fold; in test [29], 2.56 fold. Further, the fold-change in binding vs fucosylated wild-type human IgG1 in the test with human FcγRIIb (human) [30] was 0.5 fold. Also, the fold-change vs wt with human FcRn (human) [20] came to 0.77 fold; with human C1q (human) [10] it was 0.21 fold; in [11], 1.47 fold; in the test with human FcγRIIb (human) [12], 0.39 fold; in test [31] it was 0.32 fold; in the test with human FcγRIIIb (human) [32], 0.56 fold. The fold-change vs wt in test [33] is 0.09 fold; in [13], 4.85 fold.
